Three molecules from paper doi:10.1101/2022.12.08.519103 (bioRxiv, 2022) can be followed below.

Assay in all cases: Holdup Multiplex
Experiment [1] concerns the target T1, AviTag-His6-MBP-TEVsite-14-3-3σ (human, UniProt P31947 1-248).
T1 sequence (looked up): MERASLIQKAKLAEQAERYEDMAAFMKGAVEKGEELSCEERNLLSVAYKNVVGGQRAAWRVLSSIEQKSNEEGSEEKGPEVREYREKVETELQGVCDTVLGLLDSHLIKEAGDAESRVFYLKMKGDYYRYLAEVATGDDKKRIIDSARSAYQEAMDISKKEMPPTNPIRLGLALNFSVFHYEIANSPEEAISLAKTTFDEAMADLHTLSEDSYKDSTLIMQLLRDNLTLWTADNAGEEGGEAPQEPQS

Experiment [2] has as its target T2, AviTag-His6-MBP-TEVsite-14-3-3ε (human, UniProt P62258 1-255).
T2 sequence (looked up): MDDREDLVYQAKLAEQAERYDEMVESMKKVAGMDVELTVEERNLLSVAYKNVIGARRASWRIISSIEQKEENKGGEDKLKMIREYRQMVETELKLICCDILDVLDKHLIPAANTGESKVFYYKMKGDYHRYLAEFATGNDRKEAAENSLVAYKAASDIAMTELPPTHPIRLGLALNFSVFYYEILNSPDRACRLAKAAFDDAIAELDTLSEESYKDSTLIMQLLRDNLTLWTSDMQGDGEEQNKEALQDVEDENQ

Experiment [3] addresses T3, AviTag-His6-MBP-TEVsite-14-3-3γ (human, UniProt P61981 1-247).
T3 sequence (looked up): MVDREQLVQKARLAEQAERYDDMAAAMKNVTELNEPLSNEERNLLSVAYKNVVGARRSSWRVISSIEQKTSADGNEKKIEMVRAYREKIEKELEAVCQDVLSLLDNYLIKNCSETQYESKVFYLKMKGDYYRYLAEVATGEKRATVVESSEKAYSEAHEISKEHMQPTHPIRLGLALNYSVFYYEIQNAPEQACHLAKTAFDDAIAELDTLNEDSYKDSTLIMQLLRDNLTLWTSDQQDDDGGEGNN

Square brackets hold non-standard residues; d marks the D form. Ends that are not written are not given here. pS = N[C@@H](COP(=O)(O)O)C(=O)O

B1: phosphopeptide centered on pSer75 from CDK17 (peptide, UniProt Q00537 70-79, looked up)
peptide: LRRPH[pS]VIGG
B1: the “Kd ratio between γ and σ” value in experiment [1] came to 60 fold.

B2: IRS2 pSer384 phosphopeptide (peptide, UniProt Q9Y4H2 379-388, looked up)
peptide: GARPV[pS]VAGS
modifications: also: phosphoserine at 384 (S6 or S10)
Usually Kd stands for the equilibrium constant for the complex coming apart. Read a high Kd as weaker binding. Molecule B2 had a Kd in experiment [2] of around 900 µM.

B3: YAP1 pSer276 phosphopeptide (peptide, UniProt P46937 271-280, looked up)
peptide: QRISQ[pS]APVK
modifications: also: phosphoserine at 276 (S4 or S6)
With B3, the Kd in experiment [3] was 0.7 µM.
